Results taken from US20200392227A1 (LYVGEN BIOPHARMA, published 2020).
Residue numbers refer to the chain shown, from its start. Where two headings read alike, the source gives them in different places.

B1: anti-CD137 IgG4 with Fc variant G4m7 (antibody)
heavy: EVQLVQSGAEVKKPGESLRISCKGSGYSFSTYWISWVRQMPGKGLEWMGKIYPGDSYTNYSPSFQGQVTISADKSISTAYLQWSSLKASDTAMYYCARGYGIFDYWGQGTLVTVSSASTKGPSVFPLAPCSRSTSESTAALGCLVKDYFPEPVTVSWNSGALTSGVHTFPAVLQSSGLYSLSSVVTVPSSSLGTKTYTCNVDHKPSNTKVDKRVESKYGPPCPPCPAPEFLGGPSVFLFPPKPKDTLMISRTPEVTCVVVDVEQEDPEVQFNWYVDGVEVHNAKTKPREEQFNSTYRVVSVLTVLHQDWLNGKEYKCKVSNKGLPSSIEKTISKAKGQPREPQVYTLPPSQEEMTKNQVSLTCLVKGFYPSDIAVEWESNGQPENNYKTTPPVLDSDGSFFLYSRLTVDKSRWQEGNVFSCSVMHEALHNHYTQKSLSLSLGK
light: SYELTQPPSVSVSPGQTASITCSGDNIGDQYAHWYQQKPGQSPVLVIYQDKNRPSGIPERFSGSNSGNTATLTISGTQAMDEADYYCATYTGFGSLAVFGGGTKLTVLGQPKAAPSVTLFPPSSEELQANKATLVCLISDFYPGAVTVAWKADSSPVKAGVETTTPSKQSNNKYAASSYLSLTPEQWKSHRSYSCQVTHEGSTVEKTVAPTECS
notes: copies: 2 + 2
B2: anti-CD137 IgG4 with Fc variant G4m8 (antibody)
heavy: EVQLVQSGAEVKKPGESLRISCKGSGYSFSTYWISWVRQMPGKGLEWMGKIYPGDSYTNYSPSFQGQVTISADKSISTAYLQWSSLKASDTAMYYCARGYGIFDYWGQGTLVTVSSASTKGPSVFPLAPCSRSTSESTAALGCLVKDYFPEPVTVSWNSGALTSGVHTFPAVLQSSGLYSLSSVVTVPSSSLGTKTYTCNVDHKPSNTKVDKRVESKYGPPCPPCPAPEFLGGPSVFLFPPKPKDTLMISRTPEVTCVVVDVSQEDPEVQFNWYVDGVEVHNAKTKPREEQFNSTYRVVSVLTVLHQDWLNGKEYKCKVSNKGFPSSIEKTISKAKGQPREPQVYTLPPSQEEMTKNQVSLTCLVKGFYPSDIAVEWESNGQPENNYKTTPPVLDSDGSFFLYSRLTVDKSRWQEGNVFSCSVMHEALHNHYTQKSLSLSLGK
light: B1 light
notes: copies: 2 + 2
B3: anti-CD137 IgG4 with Fc variant G4mPE (antibody)
heavy: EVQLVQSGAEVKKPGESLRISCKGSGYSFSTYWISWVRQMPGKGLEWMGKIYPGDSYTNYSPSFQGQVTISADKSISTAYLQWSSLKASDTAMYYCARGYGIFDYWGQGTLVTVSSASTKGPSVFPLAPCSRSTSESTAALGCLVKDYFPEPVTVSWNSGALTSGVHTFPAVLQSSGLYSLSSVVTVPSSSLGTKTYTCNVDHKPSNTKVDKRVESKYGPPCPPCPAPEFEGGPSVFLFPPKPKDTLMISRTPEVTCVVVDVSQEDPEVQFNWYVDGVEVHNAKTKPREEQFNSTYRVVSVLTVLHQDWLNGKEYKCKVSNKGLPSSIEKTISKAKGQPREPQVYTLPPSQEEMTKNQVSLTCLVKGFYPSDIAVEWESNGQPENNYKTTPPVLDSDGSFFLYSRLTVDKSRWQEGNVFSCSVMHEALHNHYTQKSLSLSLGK
light: B1 light
notes: also called G4PE; copies: 2 + 2
B4: anti-CD137 IgG1 with Fc variant G1m15 (antibody)
heavy: EVQLVQSGAEVKKPGESLRISCKGSGYSFSTYWISWVRQMPGKGLEWMGKIYPGDSYTNYSPSFQGQVTISADKSISTAYLQWSSLKASDTAMYYCARGYGIFDYWGQGTLVTVSSASTKGPSVFPLAPSSKSTSGGTAALGCLVKDYFPEPVTVSWNSGALTSGVHTFPAVLQSSGLYSLSSVVTVPSSSLGTQTYICNVNHKPSNTKVDKKVEPKSCDKTHTCPPCPAPELLSVFLFPPKPKDTLMISRTPEVTCVVVDVSHEDPEEKFNWYVDGVEVHNAKTKPREEQYNSTYRVVSVLTVLHQDWLNGKEYKCKVSNKALPAPIEKTISKAKGQPREPQVYTLPPSREEMTKNQVSLTCLVKGFYPSDIAVEWESNGQPENNYKTTPPVLDSDGSFFLYSKLTVDKSRWQQGNVFSCSVMHEALHNHYTQKSLSLSPGK
light: B1 light
notes: copies: 2 + 2
B5: anti-CD137 IgG1 with Fc variant G1m17 (antibody)
heavy: B4 heavy with S263E, E269V
light: B1 light
notes: copies: 2 + 2
B6: anti-CD137 IgG1 with Fc variant G1m18 (antibody)
heavy: B4 heavy with E269V, L324F
light: B1 light
notes: copies: 2 + 2
B7: anti-CD137 IgG1 with Fc variant G1m29 (antibody)
heavy: EVQLVQSGAEVKKPGESLRISCKGSGYSFSTYWISWVRQMPGKGLEWMGKIYPGDSYTNYSPSFQGQVTISADKSISTAYLQWSSLKASDTAMYYCARGYGIFDYWGQGTLVTVSSASTKGPSVFPLAPSSKSTSGGTAALGCLVKDYFPEPVTVSWNSGALTSGVHTFPAVLQSSGLYSLSSVVTVPSSSLGTQTYICNVNHKPSNTKVDKKVEPKSCDKTHTCPPCPAPELLGPSVFLFPPKPKDTLMISRTPEVTCVVVDVEHEDPEVKFNWYVDGVEVHNAKTKPREEQYNSTYRVVSVLTVLHQDWLNGKEYKCKVSNKAFPAPIEKTISKAKGQPREPQVYTLPPSREEMTKNQVSLTCLVKGFYPSDIAVEWESNGQPENNYKTTPPVLDSDGSFFLYSKLTVDKSRWQQGNVFSCSVMHEALHNHYTQKSLSLSPGK
light: B1 light
notes: copies: 2 + 2

Experiments:
[1] = molecular target: T1, human FcRIIA protein (MednaBio, E1033) (human, UniProt P12318 34-218, limits assumed); assay: BLI
T1 construct: Bought; also called FcγRIIA
T1 sequence (looked up): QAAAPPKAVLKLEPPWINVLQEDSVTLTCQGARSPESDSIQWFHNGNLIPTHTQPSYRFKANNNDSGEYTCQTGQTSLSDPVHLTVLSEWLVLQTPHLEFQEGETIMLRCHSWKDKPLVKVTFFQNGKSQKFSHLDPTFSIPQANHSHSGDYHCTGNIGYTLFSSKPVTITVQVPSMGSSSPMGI
Procedure, shortened: (§1)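 Binding was measured by biolayer interferometry on an Octet Red96 System. Commercial human Fc receptor proteins were loaded at 20 μg/mL onto anti-penta-HIS biosensors, which were then dipped into an 8-point 1:3 dilution series of test IgG starting at 300 nM in PBS with 0.1% BSA and 0.02% Tween-20, at pH 7.2 for Fcγ receptors and pH 6 for FcRn. Kd, kon and koff were obtained by global fitting, with data fitted to a 1:1 binding model.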

[2] = molecular target: T2, human FcRIIIB protein (MednaBio, E1037) (human, UniProt O75015 17-200); assay: BLI
T2 construct: Bought; also called FcγRIIIB; FcgRIIIB
Procedure, shortened: as §1

[3] = molecular target: T3, human FcRn protein (MednaBio, E1032) (human, UniProt P55899 24-297; P61769 21-119); assay: BLI
T3 construct: Bought; assays at pH 6
Procedure, shortened: as §1

[4] = molecular target: T4, human FcRIIIA-F158 protein (MednaBio, E1036) (human, UniProt P08637 17-208); assay: BLI
T4 construct: Bought; also called FcγRIIIA(F)
Procedure, shortened: as §1

[5] = molecular target: T5, human FcRIIIA-V158 protein (MednaBio, E1035) (human, UniProt P08637 17-208); assay: BLI
T5 construct: Bought; also called FcγRIIIA(V); FcgRIIIA(V)
Procedure, shortened: as §1

[6] = molecular target: T6, human FcRIIB/C protein (MednaBio, E1034) (human, UniProt P31994 43-217, limits assumed); assay: BLI
T6 construct: Bought as FcRIIB/C; also called FcγRIIB; CD32B
T6 sequence (looked up): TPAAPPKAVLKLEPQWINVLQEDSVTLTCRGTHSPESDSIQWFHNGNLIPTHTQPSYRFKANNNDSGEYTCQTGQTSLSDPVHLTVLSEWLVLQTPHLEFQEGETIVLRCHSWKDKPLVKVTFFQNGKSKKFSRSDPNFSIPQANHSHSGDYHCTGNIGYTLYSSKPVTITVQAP
Procedure, shortened: as §1

[7] = molecular target: T7, human FcRI protein (MednaBio, E1031) (human, UniProt P12314 16-288, limits assumed); assay: BLI
T7 construct: Bought; loaded on anti-penta-HIS biosensors; also called FcγRI
Procedure, shortened: as §1

[8] = molecular target: T8, human FcγRIIC expressed on CHO cells (human, UniProt P31995 43-323); assay: FACS, CHO cells expressing FcγRIIC
T8 construct: whole, on cells
T8 sequence (looked up): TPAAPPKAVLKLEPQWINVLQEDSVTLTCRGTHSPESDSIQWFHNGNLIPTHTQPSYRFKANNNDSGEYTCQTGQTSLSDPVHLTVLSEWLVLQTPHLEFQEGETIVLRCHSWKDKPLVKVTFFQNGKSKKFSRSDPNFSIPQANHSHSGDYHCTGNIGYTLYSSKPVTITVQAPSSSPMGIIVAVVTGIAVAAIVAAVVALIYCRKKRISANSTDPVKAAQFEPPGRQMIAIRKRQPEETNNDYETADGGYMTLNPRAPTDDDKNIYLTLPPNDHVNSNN
Description: FIGS. 1A-1W are charts showing binding activity of various IgG variants as indicated to different types of Fcγ receptors expressed on CHO-K1 cells at the various concentrations as indicated. The concentrations of each IgG variant, from left to right, are 0 μg/ml, 0.3 μg/ml, 1 μg/ml, 3 μg/ml, and 10 μg/ml in FIGS. 1A-1C, 1E-J, 1L-1M, 1P-1R, and 1T-1V. For FIGS. 1D, 1K, 10, 1S, and 1w the bars, from left to right, correspond to the following concentrations of IgG variant: 0.3 μg/ml, 1 μg/ml, 3 μg/ml, and 10 μg/ml.
For FACS analysis of the IgG mutants' binding to different FcγRs, FcγR overexpressing CHO cells were harvested using trypsin-EDTA and were suspended in cold staining buffer (3% BSA in PBS). Test IgG mutants, which were diluted in staining buffer, were added into the cells. The mixture was incubated 4° C. for 2 hours, and then washed twice with cold staining buffer and re-suspended in PE-labeled anti-human IgG followed by incubation at 4° C. for 2 hours. The mixture was washed twice with staining buffer and re-suspended in 2% PFA in PBS for FACS.

[9] = molecular target: T1, human FcRIIA protein (MednaBio, E1033); assay: BLI; remark: listed apart in the source
Procedure, shortened: as §1

[10] = molecular target: T2, human FcRIIIB protein (MednaBio, E1037); assay: BLI; remark: listed apart in the source
Procedure, shortened: as §1

[11] = molecular target: T3, human FcRn protein (MednaBio, E1032); assay: BLI; remark: listed apart in the source
Procedure, shortened: as §1

[12] = molecular target: T4, human FcRIIIA-F158 protein (MednaBio, …); assay: BLI; remark: listed apart in the source
Procedure, shortened: as §1

[13] = molecular target: T5, human FcRIIIA-V158 protein (MednaBio, …); assay: BLI; remark: listed apart in the source
Procedure, shortened: as §1

[14] = molecular target: T6, human FcRIIB/C protein (MednaBio, E1034); assay: BLI; remark: listed apart in the source
Procedure, shortened: as §1

[15] = molecular target: T7, human FcRI protein (MednaBio, E1031); assay: BLI; remark: listed apart in the source
Procedure, shortened: as §1

T4 sequence (P08637 17-208 limits assumed): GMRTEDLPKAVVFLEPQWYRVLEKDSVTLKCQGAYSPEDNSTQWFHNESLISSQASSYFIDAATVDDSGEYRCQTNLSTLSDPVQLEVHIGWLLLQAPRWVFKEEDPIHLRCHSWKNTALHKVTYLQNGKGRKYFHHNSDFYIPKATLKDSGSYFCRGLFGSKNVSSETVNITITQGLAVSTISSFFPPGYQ
T7 sequence (P12314 16-288 limits assumed): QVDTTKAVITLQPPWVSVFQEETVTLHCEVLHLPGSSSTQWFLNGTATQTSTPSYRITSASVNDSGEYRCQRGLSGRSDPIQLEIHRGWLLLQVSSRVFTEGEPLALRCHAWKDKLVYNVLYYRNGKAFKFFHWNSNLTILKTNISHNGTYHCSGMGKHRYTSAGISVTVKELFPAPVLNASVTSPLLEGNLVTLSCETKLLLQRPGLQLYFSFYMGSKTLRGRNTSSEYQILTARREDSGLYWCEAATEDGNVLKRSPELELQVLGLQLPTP
T5 sequence (P08637 17-208 F176V): as the sequence (P08637 17-208 limits assumed) above, with F160V counted along it
T3 sequence (P55899 24-297 limits assumed, form in doubt, chain 1 of 2): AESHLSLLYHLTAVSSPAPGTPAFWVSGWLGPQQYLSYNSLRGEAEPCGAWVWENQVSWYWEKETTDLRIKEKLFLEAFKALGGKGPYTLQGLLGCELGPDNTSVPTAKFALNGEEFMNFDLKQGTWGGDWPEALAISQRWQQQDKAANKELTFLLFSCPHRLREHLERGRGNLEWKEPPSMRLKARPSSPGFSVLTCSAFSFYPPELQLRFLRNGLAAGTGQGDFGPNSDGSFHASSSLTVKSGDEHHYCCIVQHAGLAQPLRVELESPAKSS
T3 sequence (P61769 21-119 limits assumed, form in doubt, chain 2 of 2): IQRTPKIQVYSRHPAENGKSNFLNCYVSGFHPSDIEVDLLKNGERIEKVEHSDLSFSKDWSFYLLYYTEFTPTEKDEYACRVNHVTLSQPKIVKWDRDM
T2 sequence (O75015 17-200 limits assumed): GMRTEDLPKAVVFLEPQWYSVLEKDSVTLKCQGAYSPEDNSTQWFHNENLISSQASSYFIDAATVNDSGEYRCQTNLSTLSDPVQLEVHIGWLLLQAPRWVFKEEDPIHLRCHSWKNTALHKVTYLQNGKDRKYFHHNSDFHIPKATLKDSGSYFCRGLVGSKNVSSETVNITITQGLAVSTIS

Row | Binder | Kd [1] | koff [1] | kon [1] | Kd [3] | koff [3] | Kd [9] | koff [9] | kon [9] | binding result [10] | Kd [11] | koff [11] | kon [11] | binding result [12] | binding result [13] | Kd [14] | koff [14] | kon [14] | Kd [15] | koff [15] | kon [15] | also measured
1 | B1 | 210 nM | 0.034 s⁻¹ | 160000 M⁻¹ s⁻¹ | 23 nM | 0.012 s⁻¹ | – | – | – | – | – | – | – | – | – | – | – | – | – | – | – | binding result [2]: no binding (tested: 300 nM); kon [3]: 520000 M⁻¹ s⁻¹; binding result [4]: no binding (tested: 300 nM); binding result [5]: no binding (tested: 300 nM); Kd [6]: 45 nM; koff [6]: 0.02 s⁻¹; kon [6]: 440000 M⁻¹ s⁻¹; Kd [7]: 2.1 nM; koff [7]: 0.0011 s⁻¹; kon [7]: 540000 M⁻¹ s⁻¹; binding result [8]: binds
2 | B2 | 260 nM | 0.1 s⁻¹ | 390000 M⁻¹ s⁻¹ | 20 nM | 0.012 s⁻¹ | – | – | – | – | – | – | – | – | – | – | – | – | – | – | – | binding result [2]: no binding (tested: 300 nM); kon [3]: 610000 M⁻¹ s⁻¹; binding result [4]: no binding (tested: 300 nM); binding result [5]: no binding (tested: 300 nM); Kd [6]: 89 nM; koff [6]: 0.048 s⁻¹; kon [6]: 530000 M⁻¹ s⁻¹; Kd [7]: 3.8 nM; koff [7]: 0.0028 s⁻¹; kon [7]: 720000 M⁻¹ s⁻¹
3 | B3 | 54.5 nM | 0.0256 s⁻¹ | 469000 M⁻¹ s⁻¹ | 21.9 nM | 0.0152 s⁻¹ | – | – | – | – | – | – | – | – | – | – | – | – | – | – | – | Kd [2]: 132 nM; koff [2]: 0.0579 s⁻¹; kon [2]: 437000 M⁻¹ s⁻¹; kon [3]: 698000 M⁻¹ s⁻¹; Kd [4]: 145 nM; koff [4]: 0.0678 s⁻¹; kon [4]: 468000 M⁻¹ s⁻¹; Kd [5]: 202 nM; koff [5]: 0.0596 s⁻¹; kon [5]: 296000 M⁻¹ s⁻¹; Kd [6]: 30.7 nM; koff [6]: 0.0123 s⁻¹; kon [6]: 401000 M⁻¹ s⁻¹; Kd [7]: 605 nM; koff [7]: 0.0617 s⁻¹; kon [7]: 102000 M⁻¹ s⁻¹
4 | B4 | – | – | – | – | – | 480 nM | 0.11 s⁻¹ | 230000 M⁻¹ s⁻¹ | no binding (tested: 300 nM) | 21 nM | 0.013 s⁻¹ | 600000 M⁻¹ s⁻¹ | no binding (tested: 300 nM) | no binding (tested: 300 nM) | 700 nM | 0.38 s⁻¹ | 540000 M⁻¹ s⁻¹ | 120 nM | 0.06 s⁻¹ | 500000 M⁻¹ s⁻¹ | –
5 | B5 | – | – | – | – | – | 250 nM | 0.059 s⁻¹ | 240000 M⁻¹ s⁻¹ | no binding (tested: 300 nM) | 10.7 nM | 0.00764 s⁻¹ | 715000 M⁻¹ s⁻¹ | no binding (tested: 300 nM) | no binding (tested: 300 nM) | 180 nM | 0.043 s⁻¹ | 240000 M⁻¹ s⁻¹ | 88 nM | 0.041 s⁻¹ | 460000 M⁻¹ s⁻¹ | –
6 | B6 | – | – | – | – | – | 140 nM | 0.029 s⁻¹ | 200000 M⁻¹ s⁻¹ | no binding (tested: 300 nM) | 12.8 nM | 0.00803 s⁻¹ | 630000 M⁻¹ s⁻¹ | no binding (tested: 300 nM) | no binding (tested: 300 nM) | 670 nM | 0.39 s⁻¹ | 580000 M⁻¹ s⁻¹ | 260 nM | 0.21 s⁻¹ | 830000 M⁻¹ s⁻¹ | –
7 | B7 | – | – | – | – | – | 530 nM | 0.14 s⁻¹ | 260000 M⁻¹ s⁻¹ | no binding (tested: 300 nM) | 17 nM | 0.013 s⁻¹ | 760000 M⁻¹ s⁻¹ | no binding (tested: 300 nM) | no binding (tested: 300 nM) | 46 nM | 0.011 s⁻¹ | 250000 M⁻¹ s⁻¹ | 37 nM | 0.0098 s⁻¹ | 260000 M⁻¹ s⁻¹ | –
